Biological target: Nonhuman Primate CD123
Assay: SPR (Biacore T-100), univalent affinity; antibody captured on the CM4 chip, nonhuman primate CD123 ECD as analyte

Chain of Nonhuman Primate CD123 (soluble extracellular domain with His and Avi tags, as listed by the source limits assumed, form in doubt): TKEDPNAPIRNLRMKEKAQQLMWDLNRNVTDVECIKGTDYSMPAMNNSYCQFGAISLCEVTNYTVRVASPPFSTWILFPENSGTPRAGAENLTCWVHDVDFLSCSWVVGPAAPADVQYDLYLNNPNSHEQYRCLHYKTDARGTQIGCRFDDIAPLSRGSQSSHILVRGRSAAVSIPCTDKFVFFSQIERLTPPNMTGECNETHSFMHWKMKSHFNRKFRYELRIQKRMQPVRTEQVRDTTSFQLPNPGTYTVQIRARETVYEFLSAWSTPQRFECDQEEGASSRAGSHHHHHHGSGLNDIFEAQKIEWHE

B1: 123-10C4 (murine anti-CD123 antibody, IgG2b isotype, Kappa Light Chain) (antibody, V domains shown)
VH: QVQLKESGPGLVAPSQNLSITCTVSGFSLTTYDINWIRQPPGKGLEWLGVIWTGGGTNYNSAFMSRLSISKDNSKSQVFLKMNSLQTDDTAMYYCVRGDTYHYALDFWGQGTSVTVSS
VL: DIVMSQSPSSLAVSAGEKVTMSCKSSQSLLSSGTRKNYLAWYQQKPGQSPKLLIYWASTRESGVPDRFTGSGSGTDFTLTISSVQAEDLAVYYCKQSYILFTFGSGTKLEIK
B1 showed a Kd of 16.1 nM, a koff of 0.0023 s⁻¹ and a kon of 143000 M⁻¹ s⁻¹.

— patent US20230295316A1
